These are literature values, as cited in publication PMC3428507.

The data set deals with Pf1 MBD (Homo sapiens) (UniProt Q96QT6).
Chain of Pf1 MBD (Homo sapiens) (Q96QT6 200-241): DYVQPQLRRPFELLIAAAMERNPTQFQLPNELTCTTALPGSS

Chain of MRG15 MRG (Q9UBU8 188-362): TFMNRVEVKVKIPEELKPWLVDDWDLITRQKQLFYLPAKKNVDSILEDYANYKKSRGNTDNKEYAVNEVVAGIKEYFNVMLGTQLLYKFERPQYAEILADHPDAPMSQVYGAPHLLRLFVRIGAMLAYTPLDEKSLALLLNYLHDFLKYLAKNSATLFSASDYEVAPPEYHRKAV

MRG15 MRG (from UniProt Q9UBU8): the Kd was 15 nM.
